Data as given in US12545899B2, “Luciferase enzymes for use with thermostable luciferins in bioluminescent assays” (Promega Corporation, priority 2018, dated 2026).
Positions count from the first letter of the chain named. Names and notes keep the numbering of the source.

B1: MK0115: SEQ ID NO: 82; I396K (protein)
chain: MADKNILYGPEPFYPLEDGTAGEQMFDALSRYAAIPGCIALTNAHTKENVLYEEFLKLSCRLAESFKKYGLKQNDTIAVCSENSLQFFLPVIASLYLGIIVAPVNDKYVERELIHSLGIVKPRIVFCSKNTFQKVLNVKSKLKSIETIIILDLNEDLGGYQCLNNFISQNSDSNLDVKKFKPYSFNRDDQVAAIMFSSGTTGLPKGVMLTHKNIVARFSIAKDPTFGDAINPTSAILTVIPFHWGFGMMTTLGYFTCGFRVVLMHTFEEKLFLQSLQDYKVESTLLVPTLMAFLAKSALVEKYDFPHLKEIASGGAPLSKEIGEMVKKRFKLNFVRQGYGLTEATSAVLITPKGDAKPGSTGKIVPLHAVKVVDPTTGKILGPNEPGELYFKGPMIMKGYYNNEEATKAIIDNDGWLRSGDIAYYDNDGHFYIVDRLKSLIKYKGYQVAPAEIEGILLQHPYIVDAGVTGIPDEAAGELPAAGVVVQTGKYLNEQIVQDYVASQVSTAKWLRGGVKFLDEIPKGSTGKIDRKVLRQMLEKHTNGHHHHHHHH
B2: MK0123: SEQ ID NO: 90; H244W+T344A+S193A+N228D+L305F+S306P+I109V (protein)
chain: B1 chain with T342S, I396K
B3: MK0108: SEQ ID NO: 75; I109V (protein)
chain: B1 chain with V109I, A193S, D228N, W244H, F305L, P306S, A344T, I396L
B4: MK0119: SEQ ID NO: 86; T344A+I396K+S193A+N228D+L305F+S306P+I109V (protein)
chain: B1 chain with V348I, I396K
B5: MK0117: SEQ ID NO: 84; H244W+T344A+I396K+S193A+N228D+L305F+S306P (protein)
chain: B1 chain with I396K
B6: MK0127: SEQ ID NO: 93; H244W+T344A+I396K+S193A+L305F+S306P+I109V (protein)
chain: B1 chain with K107N, T289S, I396K
B7: MK0120: SEQ ID NO: 87; H244W+T344A+I396K+S193A+N228D+S306P+I109V (protein)
chain: B1 chain with A316M, I396K
B8: MK0116: SEQ ID NO: 83; I396L (protein)
chain: B1 chain with D228N, I396K
B9: MK0125: SEQ ID NO: 92; H244W+T344A+I396L+S193A+N228D+L305F+S306P+I109V (protein)
chain: B1 chain with A316W, A344I, I396K
B10: MK0122: SEQ ID NO: 89; H244W+I396K+S193A+N228D+L305F+S306P+I109V (protein)
chain: B1 chain with Y339M, I396K
B11: MK0124: SEQ ID NO: 91; H244W+T344M+I396K+S193A+N228D+L305F+S306P+I109V (protein)
chain: B1 chain with A344I, I396K
B12: MK0109: SEQ ID NO: 76; S193A (protein)
chain: B1 chain with V109I, I396K
B13: MK0118: SEQ ID NO: 85; H244W+T344A+I396K+N228D+L305F+S306P+I109V (protein)
chain: B1 chain with I396K
B14: MK0121: SEQ ID NO: 88; H244W+T344A+I396K+S193A+N228D+L305F+I109V (protein)
chain: B1 chain with A316W, I396K
B15: MK0135: SEQ ID NO: 103; H244W+S193A+N228D+L305F+S306P+I109V+C38R+F55I+A316W+T342S+V348I (protein)
chain: B1 chain with C38R, F55I, Y108F, A316W, Y339M, I396K
B16: MK0134: SEQ ID NO: 102; H244W+T344A+I396K+S193A+N228D+L305F+S306P+I109V+C38R+F55I+Y108F+A316W+Y339M (protein)
chain: B1 chain with C38R, F55I, A316W, T342S, A344I, V348I, I396K
B17: MK0133: SEQ ID NO: 101; H244W+T344I+I396K+S193A+N228D+L305F+S306P+I109V+C38R+F55I+A316W+T342S+V348I (protein)
chain: B1 chain with C38R, F55I, Y108F, A316W, Y339M, A344I, I396K

assay: Differential scanning fluorimetry (DSF) analysis; format: physicochemical; details: Table 9A
How it was run: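 Enzymes mixed with Sypro Orange at 5× final, heated 30–95° C at 1° C per minute with fluorescence read every 60 s. Storage buffer 50 mM HEPES pH 7.5, 100 mM NaCl, 2 mM EDTA, or for luciferase variants 20 mM HEPES pH 7.5, 200 mM NaCl, 1 mM EDTA; per-minute fluorescence change plotted against temperature.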

Molecule	DSF Tm (° C.)
B1	67 °C
B2	72 °C
B3	78 °C
B4	64 °C
B5	63 °C
B6	66 °C
B7	62 °C
B8	73 °C
B9	69 °C
B10	69 °C
B11	70 °C
B12	77 °C
B13	63 °C
B14	62 °C

same assay, conditions: Table 9B

Molecule	DSF Tm (° C.)
B15	78 °C
B16	57 °C
B17	59 °C

assay: Effect of individual mutations: maximum luminescence with CS0333; format: biochemical; details: 10 fM to 1 mM CS0333; Detection Reagent (DR) buffer
Procedure: Experiments were also conducted to evaluate and compare the activities of the various luciferase enzyme variants, including the effects of individual amino acid mutations. To evaluate the effect of individual mutations on luciferase enzyme variants, 0.005 mg/ml luciferase enzyme variant was mixed with 1 mM ATP+10 fM to 1 mM CS0333 in Detection Reagent (DR) buffer.

Molecule	Vmax (RLU) with CS0333
B1	2,120 RLU
B2	2,841,640 RLU
B3	1,300 RLU
B4	62,167 RLU
B5	3,820,310 RLU
B6	2,293,340 RLU
B7	3,192,740 RLU
B8	7,428 RLU
B9	2,625,480 RLU
B10	962,171 RLU
B11	4,270,690 RLU
B12	1,114 RLU
B13	3,455,610 RLU
B14	2,643,970 RLU

assay: Kinetic analysis of thermostable variants with D/L-luciferin (Table 10); format: biochemical; details: BrightGlo Buffer
Procedure: (§1) Experiments were also conducted to evaluate the activities (i.e. Vmax and Km) of the various thermostable luciferase variants of Ppe (SEQ ID NO: 1) described above.
(§2) Tables 10 and 11 include representative results of kinetic analysis of the thermostable variants with D/L luciferin, CS0333, and CS0280. […] MK0135 and MK0137 have amino acid substitutions that improve thermostability relative to MK0133 and MK0134, respectively, while retaining activity on the luciferin analogs CS0333 and CS0280.

Molecule	Km	Vmax (RLU)
B15	157 nM	490,914 RLU
B16	25.7 nM	377,267 RLU
B17	130 nM	1,361,878 RLU

same assay, conditions: Detection Reagent Buffer

Molecule	Km	Vmax (RLU)
B15	746 nM	93,531 RLU
B16	160 nM	430,060 RLU
B17	993 nM	1,545,274 RLU

assay: Kinetic analysis of thermostable variants with CS0333 (Table 10); format: biochemical; details: BrightGlo Buffer
Procedure: as §1, §2

Molecule	Km	Vmax (RLU)
B15	43.4 µM	4,782,661 RLU
B16	2.24 µM	11,167,451 RLU
B17	14 µM	27,149,096 RLU

same assay, conditions: Detection Reagent Buffer

Molecule	Km	Vmax (RLU)
B15	509 µM	1,018,125 RLU
B16	26.5 µM	9,278,637 RLU
B17	77.4 µM	21,861,957 RLU

assay: Kinetic analysis of thermostable variants with CS0280 (Table 10); format: biochemical; details: BrightGlo Buffer
Procedure: as §1, §2

Molecule	Km	Vmax (RLU)
B15	22 µM	343,822 RLU
B16	1.21 µM	15,499,640 RLU
B17	5.36 µM	2,774,469 RLU

same assay, conditions: Detection Reagent Buffer

Molecule	Km	Vmax (RLU)
B15	150 µM	15,983 RLU
B16	6.12 µM	1,208,016 RLU
B17	41.6 µM	266,359 RLU
